Legend:
Experiment in all cases: SDS-PAGE without heat denaturation and immunoblot
[1] = biological target: CFP-OsUVR8a (in transgenic Arabidopsis uvr8-6) (rice (Oryza sativa))
[2] = biological target: CFP-OsUVR8b (in transgenic Arabidopsis uvr8-6) (rice (Oryza sativa))
[3] = biological target: the molecule itself

Molecule: CFP-OsUVR8a (in transgenic Arabidopsis uvr8-6) (natural protein)
- stoichiometry N [1]: 2

Molecule: CFP-OsUVR8b (in transgenic Arabidopsis uvr8-6) (natural protein)
- stoichiometry N [2]: 2

B1: CFP-OsUVR8a (in transgenic rice) (natural protein)
chain: MHSTGMEMEVEVAGDDEAVPEAPERSVVLISAGASHSVALLSGGVVCSWGRGEDGQLGHGDAEDRPVPTVLTAAFDDAPGGVASVVICGADHTTAYSDEELQLYSWGWGDFGRLGHGNSSDVFNPQPIQALQGVRITQIACGDSHCLAVTVAGHVHSWGRNQNGQLGLGNTEDSLLPQKIQAFEGVRVKMIAAGAEHTAAVTEDGDLYGWGWGRYGNLGLGDRDDRLIPEKVSSVNGQKMVLVACGWRHTITVSSSGSIYTYGWSKYGQLGHGDFEDHLVPHKLEALKDTTISQISGGWRHTMALAADGKLYGWGWNKFGQVGVGDNEDHCSPVQVNFPNEQKVVQVACGWRHTLALTEAKNVFSWGRGTSGQLGHGEIVDRNIPKMIDALSSDGSACKQLESSKAVPMSAKVWVSPSERYAIVPDEKAGKGIPAGNGTETHVPQGDVKRMRV
- stoichiometry N [3]: 2

B2: CFP-OsUVR8b (in transgenic rice) (natural protein)
chain: MDAVMSAADDAGAASGREDPPPAVVLVSAGASHSVALLAGNVLCSWGRGEDGQLGHGDAEDRLVPTVLSGFDAAAPGITSVICGADHTTAYSEDEQQVYSWGWGDFGRLGHGNSSDVFTPQPVKALQGIKIKQIACGDSHCLAVTMAGEVQSWGRNQNGQLGLGTTEDSLLPQKIQSFEGVCVKMIAAGAEHTAAVTEDGDLYGWGWGRYGNLGLGDRNDRLVPEKVSSVEGEKMVLIACGWRHTITVSSSGSLYTYGWSKYGQLGHGDFEDHLVPHKLEALKDSSISQISGGWRHTMALTSDGKLYGWGWNKFGQVGVGDTDDHCFPVQVKFPEDQKVAQVACGWRHTLAFTEKKNVFSWGRGTSGQLGHGEIVDRNKPVMIDALSPDGPGCKKLEPSTAVPFAAKVWVSPSERYAIVPDEKVPNSGEGTARGNGADANVPENDVKRMRVHS
- stoichiometry N [3]: 2

Source: article PMC11289442 (Nature Communications, 2024)
